Experimental data reported in the supplement of paper PMC12042874.
± gives the uncertainty stated by the source.

Assay: amyloid nucleation score (Sup35N fusion, yeast selection) (log enrichment); library NNK3; higher = more nucleation; inactive = no reads after selection
Procedure, shortened: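 Peptides of 20 random codons fused to Sup35N were expressed in psi-negative yeast, induced 24 hours with 100 μM copper sulfate, then grown 7 days at 30°C on medium lacking adenine and uracil. Input and output plasmid inserts were Illumina-sequenced. Nucleation score is the DiMSum log enrichment of output over input reads, centred on the mode score of non-aggregating sequences, excluding sequences with under 100 input reads. Random libraries had three technical output replicates.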

Row | Substance | amyloid nucleation score
1 | FYMDWTGHLQKFNP | inactive
2 | VCFILFSS | inactive
3 | PQPARLDQGGYISDMYCYVI | -0.362 ± 1.3
4 | KDIYYTSFILPDEWITG | inactive
5 | WCNVRYLVDMRFFTTVGVKL | inactive
6 | MIGNITMGLMSLDSGKRSVN | inactive
7 | KINKREWRRFTVYSVFSHVS | 0.435 ± 0.35
8 | SGTPVPAYSTSWQQNWVKQC | inactive
9 | RLLSKVSNFREYTSSSVPDV | inactive
10 | VIVYQKSMLHLGCSLGIAFW | inactive
11 | VSFYIVKSLEEAGVSR | 1.36 ± 0.15
12 | ERRIDG | 1.23 ± 0.094
13 | TVTFYNCIVGCVSNWVSVQG | 1.77 ± 0.068
14 | YAAIPQIVINVLVGGTNASC | 2.1 ± 0.069
15 | RYCIVLTDNVNTLHNLIIMV | inactive
16 | LWEDNVWVLKR | -0.1 ± 0.19
17 | YIEWLDFR | inactive
18 | VLLQKGTETECGLAIVQLKW | inactive
19 | SKPNMAELKLHFTGYPHPAK | inactive
20 | TMDTYSVPPHNFGMLCYGL | inactive
21 | SFLFA | inactive
22 | RYWWYHSYRNGSGSLESYGV | inactive
23 | VTPVTYQASLTICYSYKALH | inactive
24 | LSGRIAKTKRLIVHRLCEEG | inactive

Row | Substance | amyloid nucleation score
25 | VHDRSLHLVGY | -0.841 ± 1.2
26 | YMIDPYKEEVLPP | inactive
27 | ITVFNLILM | 2.61 ± 0.058
28 | NEICEHTSVVLLR | inactive
29 | SGLYMCRISFSPLIVMIVYG | 1.3 ± 0.096
30 | LPFIRV | 0.007 ± 0.27
31 | DSGLCV | inactive
32 | LVEIIHVSLVFLP | inactive
33 | LLGRKRA | inactive
34 | IRMYSIWREDVSRRKARCMW | inactive
35 | VIRDQQIIVKCCNLVSICGI | 1.32 ± 0.17
36 | NSLNMRFTLQQTLMGQMNYV | inactive
37 | WGDIEVFFSYVVYLSIWRES | inactive
38 | VLMECSNFAVEQTARLVPVR | inactive
39 | LSVYGLQGHSNHNRMDGISW | 0.718 ± 0.2
40 | FSPYYLPLYVLVVRIKIQLG | inactive
41 | TLLFDPMLNA | inactive
42 | FRNVGMLGSNLGFGINNDIN | inactive
43 | TFKPDQYRFVHEYSTMRVLM | inactive
44 | GNVDVAHCDWCKGSTCMLN | 2.64 ± 0.084
45 | TGSLWRNHCLVVPQVRYGRK | -0.017 ± 0.5
46 | KISSQIYMCRKTNSSDRTMM | inactive
47 | ELALISHTLGSSATPNWFTV | inactive
48 | GSRIGGVL | inactive

Row | Substance | amyloid nucleation score
49 | DQRLFFGHGGFDAVSW | inactive
50 | LCIPVDFVGGTIRLCVL | inactive
51 | VWTGHCMASFVRFTCSVVDD | inactive
52 | SLAINSYVCMYIHFQTTMRD | inactive
53 | VISYYIATGGFIDVFYCCKF | 2.15 ± 0.085
54 | GILFNK | inactive
55 | RLDGCM | inactive
56 | RAKVISSWSLPGSSVKSYPA | inactive
57 | LDGRYKYILFLLPLCRW | inactive
58 | CLGLHQILM | inactive
59 | PTELIACVAIYNVDYLYWIH | 2 ± 0.082
60 | ITVSTGW | inactive
61 | GNQAYTVTGGSETVCSDNGC | inactive
62 | NHYLT | inactive
63 | RYKVD | inactive
64 | APLEFLSSLDWIRPELALTF | inactive
65 | IYLIPITPIPVCYKIFLFGM | 1.19 ± 0.079
66 | KIDAN | inactive
67 | GVVYWVIRKTIEGSLQFASI | inactive
68 | MAAFVCSFEFSLGSTCSMGG | inactive
69 | TNANRIGMGYDMNNYSTHYR | inactive
70 | SFSYNAQLYTQVVMSRYKMR | -0.193 ± 0.48
71 | TYLEMDIAPAMRLCS | inactive
72 | TNFAYMQREGS | inactive

Row | Substance | amyloid nucleation score
73 | ICISKRYWHDIAFCIGYSNE | 1.29 ± 0.12
74 | HFCKRLENIVYLRIFIFYLN | inactive
75 | YLNSDRSYEMDTFRFGYLLY | inactive
76 | CKRLPIACLTSLTKAR | inactive
77 | AQILSYVVSYSDPERHFSVM | inactive
78 | VYSSVEFCISEKTHLKVWVL | inactive
79 | GSALVLCELGSVAKSLSGNL | inactive
80 | DSLSFGVVIFLYFKPGEFLY | inactive
81 | HTDWICYRRWYCIASRAMYQ | inactive
82 | VINCSAHTEFRGLNFRVTCT | inactive
83 | LCTLSCFAICD | 0.74 ± 0.18
84 | ICYIPY | inactive
85 | EIKYTDL | inactive
86 | NDFIVECMTVESS | inactive
87 | FVKCSRMF | inactive
88 | KVIDGFLTLLSVNHRCKAWQ | inactive
89 | SAWHIRVERIGVMYRVHCYD | 0.747 ± 0.18
90 | PYKEFPNNVRPTWNQRYNVK | inactive
91 | DGDFIWISYVRKPKVNNDMF | inactive
92 | CGGIAFRNFLMNSGMPLEWK | inactive
93 | YFIMSFSLQNFMGSPLNRLG | inactive
94 | SYFGRLIQSLTRQWTTVARS | inactive
95 | FTNYRSRGNMVRGGPCRPSY | inactive
96 | ACANYCGSFSTTTAEYDVPS | inactive

Row | Substance | amyloid nucleation score
97 | YLTNNLFRFLEYR | inactive
98 | GIKVLTTCGHKKFVGINSVM | inactive
99 | RSKLYEISRIRKMGHPHTAE | inactive
100 | VVGLWTNS | inactive
101 | IEHSQYPAQAKPRLGSCLVL | inactive
102 | NFKNMEWFLST | inactive
103 | LYDDHFYDWQGYVRRRILDS | inactive
104 | DMLFDQGLSCNGLI | inactive
105 | PCLFTSSVSIFYNDALLVLS | inactive
106 | MVCEKERTWVTSRHWLERYR | -0.203 ± 1.3
107 | VHGYAAFLRRWWEQMNFSVR | inactive
108 | HIFDNSYIFLDLLLARKY | 1.87 ± 0.061
109 | KLKFMPRLSHKWDRDQLRVH | inactive
110 | AGKKLSRITTWSNTLLDPKS | inactive
111 | TCSSACFVENRDTNHNGHGG | inactive
112 | QIALSYSCIITRCVCNLCQR | 3.12 ± 0.056
113 | SMFTAIASTTFNLQSLYLM | inactive
114 | IYYPIMCAAVAYLLSSRFRC | inactive
115 | LKLTMSFMSQDLIIHVIDCS | inactive
116 | RSLAEGFYGAVPEGSVRFRN | inactive
117 | CIIFYCIYGFN | 3.04 ± 0.073
